Where no end group is shown, it is not given here.

The values below come from patent publication US8202696B2, “Means for use in treating diseases correlated with or caused by non-physiological levels of microtubule-associated PP2Ac” (Max-Planck-Gessellschaft zur Forderung der Wissenschaften …, priority 2002, dated 2012).

One experiment has as its target T1, MID1/PP2A complex (Homo sapiens, UniProt P78318).
T1 construct: endogenous in cells
T1 sequence (P78318 1-339): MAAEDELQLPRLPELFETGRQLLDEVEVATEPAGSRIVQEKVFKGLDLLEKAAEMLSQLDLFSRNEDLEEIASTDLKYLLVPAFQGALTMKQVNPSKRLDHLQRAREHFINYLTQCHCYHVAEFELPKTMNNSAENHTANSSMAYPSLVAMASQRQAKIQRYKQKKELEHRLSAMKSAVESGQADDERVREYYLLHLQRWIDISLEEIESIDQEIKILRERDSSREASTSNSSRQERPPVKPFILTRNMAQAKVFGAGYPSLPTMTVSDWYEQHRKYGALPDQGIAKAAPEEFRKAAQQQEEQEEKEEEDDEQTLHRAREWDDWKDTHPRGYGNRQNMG
In words: hFused phosphorylation in cells co-expressing hFused and B-Box1, Western blot. It is filed as cell-based. The procedure: 8×10^5 cells were transfected with hFused-V5 (aa 1-1335) in presence and absence of MYC-B-BOX1 (aa 110-167 of the MID1 protein) using Qiagen polyfect transfection reagent according to the manufacturer's instructions. Cell pellets were resuspended in magic mix (48% urea, 15 mM Tris-HCl, 8.7% glycerin, 1% SDS, 0.004% Bromphenol Blue, 143 mM β-Mercaptoethanol). After sonification, cell lysate of cells expressing hFused and hFused together with B-Box1 was separated on a 6% SDS-gel (200 μg protein loaded in each lane), blotted on PVDF-membranes and incubated with anti-V5-antibody (1:3000). Secondary HRP-antimouse-antibody was diluted 1:2000.
A dominant-negative effect of the B-Box1-peptide leading to an inhibition of […] induced ubiquitination of microtubules-associated PP2A and resulting in a enrichment of microtubules-associated PP2A was shown previously.
Cell lysate of cells expressing only hFused (con) and hFused together with the B-Box1 (+B-Box1) was separated on an SDS-Page, blotted and incubated with an anti-V5-antibody. In order to stop all kinase and phosphatases directly after cell lysis, cells were lysed in an SDS- and urea-containing buffer.
(Immunoblotting shows a protein as a band on a membrane.)

A further experiment addresses T2, α4 (Homo sapiens, UniProt P78318).
T2 construct: expressed in transfected cells; host or cells: L40 yeast strain
T2 sequence (P78318 1-339): T1 sequence (P78318 1-339)
As to the kind of experiment: Yeast two-hybrid interaction of MID1 constructs with α4. The experiment is classed as binding. The procedure:
Yeast two-hybrid screening. For yeast two-hybrid screening, we cloned full-length MID1 cDNA into the pBTM116 vector. We then cotransfected this with a human fetal brain cDNA Matchmaker library in the pGAD10 vector (Clontech) into the L40 yeast strain. We plated the transformants on synthetic medium lacking histidine, leucine and tryptophan (his^− leu^− trp^−) and containing 3-amino-1,2,4, triazole, and incubated the plates at 30° C. for 5 days. We assayed his-positive colonies for β-galactosidase activity with a filter assay^47. We isolated plasmid DNA from β-galactosidase-positive clones and cotransfected this again into L40 yeast with MID1-pBTM116 and controls. We selected plasmids that produced growth on selective plates only in combination with MID1-pBTM116, which were assumed to code for MID1 interactors, and sequenced them.
Activity of β-galactosidase in yeast liquid cultures. We assayed cells for β-galactosidase activity by the o-nitrophenyl-β-D-galactopyranoside (ONPG) method^47.
MID1 is a multidomain protein harboring a RING finger, two B-boxes, a coiled-coil region, a fibronectin type III domain and a B30.2 domain^3—all of which are candidate regions for specific protein-protein interactions. To clarify which domain specifically binds α4, we tested several deletion mutants of MID1 for interaction with α4 in the yeast two-hybrid system. […]

For “B-Box1: peptide derived from the MID1 domain that is responsible for α4 binding (amino acids 108-165), expressed from plasmid (ANTMTSAEKVLCQFCDQDPAQDAVKTCVTCEVSYCDECLKATHPNKKPFTGHRLIEPI; cysteine pairing not given here; also: myc tag; UniProt O15344 108-165, looked up, fragment)”, the “Ratio between phosphorylated and dephosphorylated hFused-form” value came to 3 in the experiment with MID1/PP2A complex (FIG. 15c, control 10.3) and 3 with MID1/PP2A complex (FIG. 16c, reproduction, control 8.3). The “Interaction with α4” value with α4 is “sufficient for a strong interaction with α4”.
